Among the data in the supplement of paper PMC10567573 are protein stability index values, retold here.

± gives the standard deviation.

The data set is described as follows: protein stability index of a GFP-peptide fusion (GPS, HEK-293T) (PSI 1-6); higher = more stable.
Where [1] appears, read: treatment: DMSO, c terminus: a fixed tail appended.
The mark [2] stands for this setting: treatment: MLN4924 1 uM, 8 h, c terminus: a fixed tail appended.
Setting [3] is: treatment: DMSO, c terminus: native.
The mark [4] stands for this setting: treatment: MLN4924 1 uM, 8 h, c terminus: native.
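Note: 24-mer peptide tiles fused after GFP, lentivirally expressed, FACS-sorted into six equal bins by GFP/DsRed ratio, decoded by Illumina sequencing, PSI is the read-weighted mean bin number.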

Regarding ITQSWQVSVRVQPRGRAHLLPNPY [C22orf15], the protein stability index is, setting by setting: under setting [1], 2.59 ± 0.83; under setting [2], 3.36 ± 0.85.

As to VKVHGLLKTFVKQTDHIKGIRQIT [GFOD1], the protein stability index by setting is: under setting [1], 2.53 ± 0.38; under setting [2], 2.34 ± 0.41.

On to LDELLGRGMATKLLARPGTGEHRE [FBF1], for which the protein stability index stood at 3.75 ± 0.17 under setting [1] and 4.09 ± 0.29 under setting [2].

In the case of KYENELALRQSVEADINGLRRVLD [KRT13], the protein stability index runs as follows: under setting [1], 3.57 ± 0.17; under setting [2], 3.65 ± 0.29.

In turn, GAEQPPDLHCVLVTNPHSSQWKDP [GADD45A] displayed a protein stability index under setting [1] of 4.29 ± 0.2 and a protein stability index under setting [2] of 4.44 ± 0.12.

In the case of QKNFNNLYGTKGNYTSRVWEYSSS [TRIM29], the protein stability index amounted to 2.31 ± 0.4 under setting [1] and 2.51 ± 0.12 under setting [2].

In the case of MYEEEMEREEITTKKRKLGKNPDV [FAM50A], the protein stability index by setting is: under setting [1], 4.94 ± 0.57; under setting [2], 5.14 ± 0.44.

YTCHECGDSFSHSSNRIRHLRTHT [ZNF263]: the protein stability index is 3.04 ± 0.18 under setting [1] and 3.32 ± 0.33 under setting [2].

For VSVNLEAFSQAISAIQALRSSVSR [MED27], the protein stability index reads like this: under setting [1], 3.17 ± 0.15; under setting [2], 3.24 ± 0.28.

GGRRPGTSPALLQGTAEEDHVDLS [CDKN1A]: the protein stability index reads like this: under setting [1], 5.46 ± 0.23; under setting [2], 5.33 ± 0.18.

As to ASSGLTVEVDAPKSQDLAKIMADI [KRT18], the protein stability index stood at 4.45 ± 0.3 under setting [1] and 4.57 ± 0.057 under setting [2].

As for EKQELHRNMLGLLGNVAEVKELRP [ZER1], the protein stability index by setting is: under setting [1], 3.74 ± 0.16; under setting [2], 4.04 ± 0.31.

For the sequence TLWKHQFAWPFYQPVDAIKLNLPD [BRD3], the protein stability index was 2.46 ± 0.63 under setting [1] and 2.3 ± 0.13 under setting [2].

For the sequence SPMYFFLASLSFIDTVYSTAFAPK [OR4A15], the protein stability index by setting is: under setting [1], 3.01 ± 0.35; under setting [2], 2.92 ± 0.54.

Regarding TDAKKREALYAQDPSTGCYMYYFQ [KMT5A], the protein stability index under setting [1] amounted to 2.48 ± 0.22 and the protein stability index under setting [2] stood at 2.68 ± 0.35.

In the case of VTLRQVLAAKERHCGELKRRLGLS [TPD52L2], the protein stability index runs as follows: under setting [1], 2.35 ± 0.28; under setting [2], 2.67 ± 0.2.

For the sequence EAKSAQPADGWKGERPRSEEDNEL [GCH1], the protein stability index under setting [1] turned out to be 5.56 ± 0.098 and the protein stability index under setting [2] worked out at 5.35 ± 0.16.

Consider SGRARQQDEEMLELPAPAEVAAKN [MLH1], for which the protein stability index runs as follows: under setting [1], 5.52 ± 0.29; under setting [2], 5.2 ± 0.17.

Regarding PGKALGPAATMAVELHYEEGSPRN [C2CD2L], the protein stability index is 4.81 ± 0.29 under setting [1] and 4.82 ± 0.21 under setting [2].

On to GLDFLHANCIVHRDLKPENILVTS [CDK4], for which the protein stability index came to 2.49 ± 0.23 under setting [1] and 2.61 ± 0.4 under setting [2].

Consider ERLNKEYQEIFQQLQRSWVKMDQK [TRIM43], for which the protein stability index under setting [1] is 3.23 ± 0.3 and the protein stability index under setting [2] turned out to be 3.39 ± 0.55.

For the sequence AKYPHDVVNHLSCDEARNHYGGVV [SPACA9], the protein stability index worked out at 3.5 ± 0.27 under setting [1] and 3.58 ± 0.082 under setting [2].

Consider LGPLGSTAFLPDSKCLVDDGTGRM [GALNT9], for which the protein stability index reads like this: under setting [1], 3.89 ± 0.36; under setting [2], 4.24 ± 0.21.

For the sequence VGALLVYDIAKHLTYENVERWLKE [RAB11A], the protein stability index is 2.54 ± 0.32 under setting [1] and 2.32 ± 0.54 under setting [2].

As for RRRFREKKKAIQEEEERDQALQAK [YJU2B], the protein stability index came to 5.26 ± 0.36 under setting [1] and 5.33 ± 0.23 under setting [2].

Regarding NETGYLSSVECYNLETNEWRYVSS [KLHL14], the protein stability index is 2.61 ± 0.32 under setting [1] and 2.91 ± 0.57 under setting [2].

GLDPEPLPLMDLCRRSIRSALGRQ [SPSB4] registered a protein stability index under setting [1] of 3.79 ± 0.23 and a protein stability index under setting [2] of 3.75 ± 0.18.

With WKIALLFVAFALCMFCLYSFMPLV [SLC35F2], the protein stability index is, setting by setting: under setting [1], 2.19 ± 0.51; under setting [2], 2.69 ± 0.46.

Take GTPKDHDSPENGADSFESSDSLLQ [ETS2]: the protein stability index by setting is: under setting [1], 5.46 ± 0.23; under setting [2], 5.47 ± 0.23.

On to RTIAETEAAYLKILESSQTLLSVL [SSNA1], for which the protein stability index reads like this: under setting [1], 2.33 ± 0.29; under setting [2], 2.72 ± 0.27.

Take CEFSSERGPRMCRFIRERDRAVND [CDC25B]: the protein stability index amounted to 3.51 ± 0.22 under setting [1] and 3.52 ± 0.17 under setting [2].

Turning to MDSKDVEVSSIQVRRKPQHGVCSQ [SERPINB9P1], the protein stability index runs as follows: under setting [1], 4.47 ± 0.13; under setting [2], 4.64 ± 0.22.

In turn, ETPGSAVDYPLHDLVLHTNYTATV [TNXB] displayed a protein stability index under setting [1] of 2.83 ± 0.18 and a protein stability index under setting [2] of 2.87 ± 0.55.

Consider AAASGAAGGGGGGAGAGAPGGGRL [INTS3], for which the protein stability index is 4.98 ± 0.2 under setting [1] and 4.91 ± 0.26 under setting [2].

Take MHHCKRYRSPEPDPYLSYRWKRRR [CLK3]: the protein stability index was determined as 3.49 ± 0.39 under setting [1] and 3.69 ± 0.21 under setting [2].

On to PKGSLSMGPAPRARPWTRDSASLP [RASAL3], for which the protein stability index reads like this: under setting [1], 3.81 ± 0.13; under setting [2], 4.04 ± 0.4.

In the case of SNPGPVPGSSSGPVLGSSSGAGHG [SPAG8], the protein stability index is, setting by setting: under setting [1], 5.051 ± 0.027; under setting [2], 4.7 ± 0.35.

On to LHGKAIKVEQAKKPSFQSGGRRRP [RBMY1A1], for which the protein stability index under setting [1] stood at 3.89 ± 0.2 and the protein stability index under setting [2] amounted to 4.21 ± 0.16.

On to VLRSRIRFIHLVTGCVLGSSGKVL [POMT2], for which the protein stability index was 2.62 ± 0.59 under setting [1] and 2.63 ± 0.76 under setting [2].

Turning to GVEEIKGHPFFEGVDWEHIRERPA [STK38L], the protein stability index is 3.97 ± 0.8 under setting [1] and 4.32 ± 0.37 under setting [2].

In the case of IQSWDINSRRNINYRSFEPILRLL [ZER1], the protein stability index runs as follows: under setting [1], 2.31 ± 0.099; under setting [2], 2.41 ± 0.21.

In the case of PFKQVAEMLSASRYPTISMVKPLL [ZBED1], the protein stability index reads like this: under setting [1], 1.97 ± 0.4; under setting [2], 2.19 ± 0.38.

MYLKQLAEYRKYIHSRKCRCLVM [RHOBTB3]: the protein stability index by setting is: under setting [3], 1.95 ± 0.5; under setting [4], 2 ± 0.33.

LEDKLRLLAQARDEAQGACLQQKQ [LRRC45]: the protein stability index reads like this: under setting [1], 4.49 ± 0.33; under setting [2], 4.19 ± 0.22.

Turning to ISQEEFARQLQLSDPQTVAGAFGY [LPCAT4], the protein stability index under setting [1] stood at 3.41 ± 0.43 and the protein stability index under setting [2] amounted to 3.09 ± 0.41.

As to SSTKPPKSRRKAALSSPRSRKNAT [INTS3], the protein stability index is, setting by setting: under setting [1], 4.89 ± 0.19; under setting [2], 5.04 ± 0.14.

For YPVVVAESMYGDFQEAMTHLQHKL [TENT5D], the protein stability index turned out to be 2.49 ± 0.15 under setting [1] and 2.81 ± 0.38 under setting [2].

Consider LFRKDVDDATLSRLELERKIESLM [PRPH], for which the protein stability index is, setting by setting: under setting [1], 3.06 ± 0.22; under setting [2], 3.33 ± 0.29.

As to FSVAPHETQTQRGGEFQCGLEAAS [RNF180], the protein stability index is, setting by setting: under setting [1], 3.37 ± 0.41; under setting [2], 3.36 ± 0.14.

As for PELTAALRDIRAQYESIAAKNLQE [PRPH], the protein stability index is, setting by setting: under setting [1], 3.52 ± 0.65; under setting [2], 3.8 ± 0.48.

As to MPLLRDIIKMATARQETKEMARKV [ZER1], the protein stability index is, setting by setting: under setting [1], 2.99 ± 0.3; under setting [2], 3.06 ± 0.19.

As to DMFDADGGGDISVKELGTVMRMLG [TNNC2], the protein stability index under setting [2] is 2.58 ± 0.16.

Take TKVVYLASETFNYSAIDRVKSRGK [PI4K2A]: the protein stability index under setting [1] came to 2.85 ± 0.18 and the protein stability index under setting [2] is 3.17 ± 0.31.

Consider NPYTELLVLKAHHDIVRFLVQLDD [WDR41], for which the protein stability index runs as follows: under setting [1], 2.84 ± 0.39; under setting [2], 2.65 ± 0.35.

Regarding AQEPSAVPRAGPLTVNTEAQQLLR [FOXJ1], the protein stability index turned out to be 4.62 ± 0.39 under setting [1] and 4.9 ± 0.17 under setting [2].

For the sequence YTFIIVPKMLVDLLSQKKTISFLG [OR10K2], the protein stability index by setting is: under setting [1], 3.09 ± 0.14; under setting [2], 2.7 ± 0.28.

Take TVQSRPRIDGKLDSPSRSPSKVEV [C2CD2L]: the protein stability index reads like this: under setting [1], 4.78 ± 0.21; under setting [2], 4.65 ± 0.37.

As for IVWNKKGKKVSNQRFEVIEFDDGS [PTPRD], the protein stability index came to 3.31 ± 0.18 under setting [1] and 3.15 ± 0.062 under setting [2].

In the case of RRLKQAKEEAQAEIEQYRLQREKE [ATP6V1G1], the protein stability index under setting [1] was found to be 5.47 ± 0.33 and the protein stability index under setting [2] amounted to 5.38 ± 0.25.

In the case of RLLMSQADKMTAEEVDQMFQFASI [MYL5], the protein stability index under setting [1] came out at 3.06 ± 0.26 and the protein stability index under setting [2] was determined as 3.1 ± 0.37.

For IGSCVTNPCGPRSRCGPCNTFGY [KRT33B], the protein stability index under setting [3] came out at 2.9 ± 0.28 and the protein stability index under setting [4] amounted to 2.97 ± 0.34.

On to FRALKRPLQFLGLFENSLCRLTHI [ZER1], for which the protein stability index reads like this: under setting [1], 2.62 ± 0.4; under setting [2], 2.46 ± 0.54.

Regarding LEGYISNLRKQLETLSGDRVRLDS [KRT71], the protein stability index turned out to be 3.17 ± 0.4 under setting [1] and 3.26 ± 0.35 under setting [2].

In the case of ALGTSWTLPLQDRELGPEELDELQ [CABP4], the protein stability index stood at 5.4 ± 0.097 under setting [1] and 5.23 ± 0.16 under setting [2].

In the case of VNVDNLLAAAVVQEHSNSVGGQDT [C18orf25], the protein stability index reads like this: under setting [1], 5.05 ± 0.21; under setting [2], 4.92 ± 0.43.

Take TKRCFRLAPTFSNLLLQPTTNPHT [SMG5]: the protein stability index came out at 2.41 ± 0.22 under setting [1] and 2.59 ± 0.29 under setting [2].

PGNKGRGQRGNTESKTDGDDTETV [TCF25] returned a protein stability index under setting [1] of 5.57 ± 0.3 and a protein stability index under setting [2] of 5.54 ± 0.3.

As for TNFVSRYDPRFNSWIQLPPMQERR [KLHL14], the protein stability index by setting is: under setting [1], 3.22 ± 0.084; under setting [2], 3.34 ± 0.31.

For PDLRQDFNMMEQKKRVSMILQSPA [ADD1], the protein stability index reads like this: under setting [1], 3.7 ± 0.32; under setting [2], 3.78 ± 0.23.

As to DGDIPNIPAEENASTSTPSSTLVR [FAM189A2], the protein stability index is 5.47 ± 0.2 under setting [1] and 5.55 ± 0.15 under setting [2].

As for LDSCKQLTLAQGAGEEDPSGMVTI [SMG5], the protein stability index under setting [1] is 4.46 ± 0.16 and the protein stability index under setting [2] is 4.49 ± 0.4.

DYFPSEDFYRCGYCKNESGSRSNG [ATE1] returned a protein stability index under setting [1] of 3.07 ± 0.32 and a protein stability index under setting [2] of 3.35 ± 0.49.
